# Reference: the DeepSol protein solubility set
# Assay: soluble on expression in E. coli; label from the status in PepcDB or PDB records
row,Sequence,soluble on expression in E. coli
1,MAAPAQQTTQPGGGKRKGKAQYVLAKRARRCDAGGPRQLEPGLQGILITCNMNERKCVEEAYSLLNEYGDDMYGPEKFTDKDQQPSGSEGEDDDAEAALKKEVGDIKASTEMRLRRFQSVESGANNVVFIRTLGIEPEKLVHHILQDMYKTKKKKTRVILRMLPISGTCKAFLEDMKKYAETFLEPWFKAPNKGTFQIVYKSRNNSHVNREEVIRELAGIVCTLNSENKVDLTNPQYTVVVEIIKAVCCLSVVKDYMLFRKYNLQEVVKSPKDPSQLNSKQGNGKEAKLESADKSDQNNTAEGKNNQQVPENTEELGQTKPTSNPQVVNEGGAKPELASQATEGSKSNENDFS,not soluble
2,MSLRSPLEPGAPDALLTVIVIVEHLDHKEEVIVQGREIVPSMDGHFDTIQELNSRFTESAPREKIEIGNRERPFKLHVVNVGDSRAMLVTGESYAALTRDHVPDDPGEWRRIEETGDQVVYSDGCARIRGLAMSRSFGDFVAKEVRTPSPITAKPDIRRFYATWNDVLLLYSDGLHVDGEDWRTNFGMAKQCISSVPKISDVAVCLLQQAYGGGSSDNITVLATKFRKFRRQTSAKLRIFGGLAKSFSEEGHHHHHH,not soluble
3,GAMGKTVSQSQRLEHNWNKFFASFVPNLIKKNPQSKQFDHENIKQCAKDIVKILTTKELKKDSSRAPPDDLTKGKRHKVKEFINSYMDKIILKKKQKKALGLSS,soluble
4,MSSSHSRAGQSAAGAAPGGGVDTRDAEMPATEKDLAEDAPWKKIQQNTFTRWCNEHLKCVSKRIANLQTDLSDGLRLIALLEVLSQKKMHRKHNQRPTFRQMQLENVSVALEFLDRESIKLVSIDSKAIVDGNLKLILGLIWTLILHYSISMPMWDEEEDEEAKKQTPKQRLLGWIQNKLPQLPITNFSRDWQSGRALGALVDSCAPGLCPDWDSWDASKPVTNAREAMQQADDWLGIPQVITPEEIVDPNVDEHSVMTYLSQFPKAKLKPGAPLRPK,soluble
5,MGSDKIHHHHHHMEAQDHNNEQQVTEYQVMSYLRAHPQFFEHHTGLLAELYLPSPHGQGTVSLAERQQLAQRDRIRVLDAKLAQLMKYGEENDAIGEKVHRLSLGLLATERMEVLVSLLEHSLHEDFQVPYVSLRLWAKPRESGNGSLPIFASVDQELQRWAQGLATPYCGNRPGMPLQGWFGVEARPASFAVMALKAQQVFGVLALASDDDKRFYPDMGTLYLKRISELISAALLRHIIV,not soluble
6,MTELSAFPITRKWPAKHPERLQLYSLPTPNGVKVSIMLEEIGLAYEAHKVSFDNDDQLSPEFISLSANNKIPAILDPNGPGGQPLALFESGAILQYLAEKSGQLLSQDPAQRYQTLQWLMFQMGGIGPMFGQVGFFHFFAGKEYEDKRPRDRYVNESKRLLGVLDRHLKGRQWMAEEYSIADIAIFPWVRNLVERYNARDLVGFDQFKEVQRVLANFLERPAVQRGLKIPG,not soluble
7,MGGRSNSATTAAQQNAVLRIVVVGGGGVGKSALTIQFIQRYFVQDYDPTIEDSYTKQCFVDEDLCKLEILDTAGQEEFSTMREQYLRTGSGFLIVFAVTDRNSFEEVKKLHELICRIKDRDDFPIILVGNKADLENERHVARHEAEELAHRLSIPYLECSAKIRKNVDEAFFDIVRLVRKYQHDERMPIHPHDDRKLESPIKLKKKKNCRIQ,soluble
8,MGSDKIHHHHHHMHIAPHDNQNKPIVDAEHDLVPLNYFNIVKLRRGEVFEYAVPGYETCVVPATGTVDIDVEGAIYPDLGNRTEDVWDGEPEGVYVPVGAKVRITCKTDVTETFIAGAKYDKVLEPFDVRADALDVVQYGSDDTKTHRKIKHILGANHHDKVGRLLVSELYTVGEGGWSGFPSHKHDTDRLPDETRHDETYNFRFKPNYGSGVQMLQREDNQPGDAYHIMDGSTVLIDKGYHPCAVLPGYQMYYFTILGGLSQRSLKQYFQPTHAEQLHTIPGIMDMVAKFK,not soluble
9,MPQYKLYYFNLRGWAEPARQLFKLAHVEFEDVRIENGTPEWGALKPKTPFGQLPFLSVDGFEIPQSAAILRYLAKKFGYAGKTSEEEAWVDAIVDQFKDFVTPLRQLIMAQRSGNAEEIERIQKEVFAPARDTFFKILNGILEKSKSGFLVGDGVTWADLVIADILTTMEMLGVFDKHGEEQKLAALREKVNEIPEIKEHNSSRPDSVV,not soluble
10,MAHHHHHHMMSTASKILAILREAMRKRSLSALIIPSSDPHNSEYVKDEYKCRAYITNFKGSAGTCLITMNEAYLWTDGRYWLEASQSLYPEWTLMKDGHPDVPRLENWIQLNLGSDVLVGMNNHLSTVAEWERRRKMFNLVSVPEMVQPLMPLVENPVSKLYARPEEFCGMRCGEKAAALMEEMERQKCDALVLSALDEVAWLTNLRGSDVPFNPVFYAYGVVRCCSPPKVHLFVDAVMSEEQGPSLELHPYTALESYLRTIPAGTTFLVDEYQTSQWLFTLLESLGMRIKGVACGPAQKLKAVKNAVEIEGFRRCHVRDGVALTRYLAWLHDTVAVKGDTSVTEYSAAQRLEDFRREGEHFVQLSFSTISSVGPNAAIVHYVAPREGSATIVPDQLYLVDSGAQYLDGTTDVTRTVCFREPGDKEREAYTLVLKGNLALHSAVWPTGTSGHSLDVLARAALWKCGLNYAHGTGHGVGSFLNVHEGPQGIGLRPTPTEATLAAGMVMSNEPGYYKDGEFGIRIENLELVVDVATKHSKKGFLTFDTLTMVPLCRELIDVSALTEAERLQVNAYQQTVRETLLPHLRRCNDSCAIAYLEHHTATL,soluble
11,MKQFKIRSVLQSIALLVLAGTAAAEPKPEKITHGRFEQIPVLRPDGEPQRVVIWFSDAGHVDQRTRQAEILRQDGAMVALVDTTHLYKVLAADSNHCTFSVGDVENLSRYLQAYYRDKTYRLPLLVGDGDGSGLVYAVAAQATENILAGVVSDGLCPVVVPTQAVCGAGVASDQHLKPAPVAAPLLVMTVSSAHCPAQLTSGFVRKVALGREIRLAASADLLPRLRAALRVLGAQKGVSLPPPPADLDGLPVVEVPSKAQKKSDTFAIFVSGDGGWAEIDKKVAGHLADADIPVVGLDSLRYFWSERTPEGFAKDLDRIARFYAHHWKRNRLLLVGFSQGADVLPAAINKLSPNTRQIIRMTALLSLGKYAHYEFHVSNWISTDDEGIPIAPDMVKLRSTRTVCIYGVDDQETLCPSLPQQNRRVALPGTHHFNGDYETVAKTILAQMEAAPLEHHHHHH,not soluble
12,MSLTRGEARRPPQEFDRVLSSMCTTPHPAAREAAQAFLATNPGDPETYPAVAERERDAVALLGEIVGLSSPHGYIAAGGTEANLQAVRAARNRADADAVNVVAPASAHFSFQKAADVLGVELRLAPTDGDHRADVAAVADLVDGDTAVVVGVAGTTEYGRVDPIPALADIAAGVDANLHVDAAWGGFVLPFTDHDWSFADAPVNTMAIDPHKMGQAPVPAGGFLARDPETLDALAIETPYLESDTQPTLGGTRSGAGVAGALASLRALWPDGYREQYERTQGNAEYLAAELAARGYDVVDPELPLVAADMPDAEFQALREEGWRISRTASDALRVVCMPHVTREMLAAFLDDVDALAEGHHHHHH,not soluble
13,MKNSNFPAEVKDLTKRIRTVLMATAQMKEHEKDPEMLVDLQYSLANSYASTPELRRTWLESMAKIHARNGDLSEAAMCYIHIAALIAEYLKRKGYWKVEKICTASLLSEDTHPCDSNSLLTTPSGGSMFSMGWPAFLSITPNIKEEGAMKEDSGMQDTPYNENILVEQLYMCVEFLWKSERYELIADVNKPIIAVFEKQRDFKKLSDLYYDIHRSYLKVAEVVNSEKRLFGRYYRVAFYGQGFFEEEEGKEYIYKEPKLTGLSEISQRLLKLYADKFGADNVKIIQDSNKVNPKDLDPKYAYIQVTYVTPFFEEKEIEDRKTDFEMHHNINRFVFETPFTLSGKKHGGVAEQCKRRTILTTSHLFPYVKKRIQVISQSSTELNPIEVAIDEMSKKVSELNQLCTMEEVDMIRLQLKLQGSVSVKVNAGPMAYARAFLEETNAKKYPDNQVKLLKEIFRQFADACGQALDVNERLIKEDQLEYQEELRSHYKDMLSELSTVMNEQITGRDDLSKRGVDQTCTRVISKATPALPTVSISSSAEV,not soluble
14,MGSQSETVCVTGASGFIGSWLVMRLLERGYTVRATVRDPTNVKKVKHLLDLPKAETHLTLWKADLADEGSFDEAIKGCTGVFHVATPMDFESKDPENEVIKPTIEGMLGIMKSCAAAKTVRRLVFTSSAGTVNIQEHQLPVYDESCWSDMEFCRAKKMTAWMYFVSKTLAEQAAWKYAKENNIDFITIIPTLVVGPFIMSSMPPSLITALSPITGNEAHYSIIRQGQFVHLDDLCNAHIYLFENPKAEGRYICSSHDCIILDLAKMLREKYPEYNIPTEFKGVDENLKSVCFSSKKLTDLGFEFKYSLEDMFTGAVDTCRAKGLLPPSHEKPVDGKT,soluble
15,MTSGTTRWLDDCTPRALERFADELIAMAEQREDEARRRFYEGMAVAAKLIALRWEGKCAYIDDHLLDNVYEALAVFSLEKLEKTLAMEAEEAHGGGRCSFCLKEKPRLAKGPLAAICDDCLQFGLQVIAKQP,not soluble
16,MSLKVVKFGGSSLASASQLEKVLNIVKSDSERRFVVVSAPGKRNAEDTKVTDALIKYYRDYVAGNDISKNQSWIIDRYAAMVSELGLKPAVLEKISKSIHALATLPIEENEFLYDTFLAAGENNNAKLIAAYFNQNGIDARYMHPREAGIVVTSEPGHARIIPSSYDKIEELTNTNEVLVIPGFFGVTKENQICTFSRGGSDITGSIIAAGVKADLYENFTDVDGIFAAHPGIIHQPHSIPELTYREMRELAYAGFSVLHDEALLPAYRGKIPLVIKNTNNPDHPGTRIVLKHSNDEFPVVGIAGDSGFVSINMSKYLMNREVGFGRKVLQILEELNIGWEHMPTGIDDLSIILRSRQLTPIKEEEILRQLVQKAKVDHAEIEHDLSIIMIVGEKMKSHIGVTATATRALSENKINIQMMSQGSSEVSIMFVVNKDQEKAAIKALYNAFFGESKEDEGHHHHHH,soluble
17,VLRHISPAFAEDPLRVLRAARFMARLAPLGFSIAPETLAMMRQMAANGELNSLIPERIWKELSRSLTYTQPAAFLHTLRTVNALEVVLPELNALYGVPQHADYHPEIDTGLHQELVSDIAAKLAPGDMLIGFAALCHDLGKALTPRATWPHHPMHEQRGMAPTQQLSERLKVPRNYQQLALIACREHLNVHRLSKLHDNTVYELLQRCDAFRRPERIAQLAIVCEADYRGRYGHEDANYPQG,not soluble
18,MKFFIAFACLLAVALANEDANVLRAEQQVNVDGFAYAVELDNSVNVQQKGDLNGEEWVVKGSQSWTSPENVPVSIQYIADANGYQVVSANPPLPTPPPIPEAIQRSLEYIAAHPPSQLEHHHHHH,not soluble
19,MGSDKIHHHHHHAGCKTSKVVKTTPVEPAYLSSKLQLTVPNKNGSMTVSGSMKMKSGERIQLSVLMPVFRSEVMRMEVTPDEVLLIDRMNKRYVRATRDELKGILPENADFDRLEKLLFKASLPGEKKELTGRELGIPSLEKAKVRLSDFSTAEFELIPTEVSSRYTQVALEDLLKMLMKL,not soluble
20,MGSDKIHHHHHHMQIKNLSLKNKKDLQIWKEFLTEHGISNFSSAEVFKIDETIALFEDQRIVATGSLAGNVLKYIAVESEGSGSEFNSVISQLTNLAAGKGIFHLFVFTKAKYSKSFQFIGFKELAKSDNAALLESGDYLIGDYLAELPRVANQEEKKIAGIVMNANPFTKGHRYLVEKAASENDYVYVFVVSTDASLFNSKERLQLVKEGTADLKNVFVVSGGDYMVSYATFPAYFLTSDQTVIEYQTTLDALIFKNQIAPVLNIQTRFLGEEPFSKTTGIYNRILEKVLPPSVSVKIIPRAKTQSETIITATEVRQLIAKNNLVPLKQFLPFTTIKYVEEHKTELQSRIKKGININGN,not soluble
